Source: patent US20250283885A1, “MODULAR BIOSENSOR FOR RECEPTOR TYROSINE KINASE ACTIVITY” (The Trustees of Princeton University, priority 2024, published 2025)

Experiments:
[1] = target: EGFR (Homo sapiens, UniProt P00533); test: EGFR pYtag live-cell imaging: clearance of cytosolic ZtSH2 in NIH 3T3 cells; settings: varying doses, NIH 3T3 EGFR pYtag
Source text: Six ITAMs from the CD3γ, CD3δ, CD3ε, and CD3ζ chains of the TCR. In each case, three identical repeats of the ITAM were fused to the C-terminal tail of EGFR followed by the FusionRed fluorescent protein (EGFR-ITAM-FusionRed). Each receptor was the co-expressed with an iRFP-labeled ZtSH2 (iRFP-ZtSH2) in NIH 3T3 fibroblasts, which express negligible levels of EGFR. […] Because ZtSH2 can in principle be recruited rapidly on and off the membrane and may localize to distinct subcellular compartments, it was reasoned that pYtags could be used to monitor the subcellular activity of an RTK in individual cells over time.

[2] = target: T1, FGFR1 (Homo sapiens, UniProt P11362); test: FGFR1 pYtag in NIH 3T3 cells: clearance of cytosolic ZtSH2; format: cell-based; settings: not in cells with ITAM-less FGFR1
T1 construct: expressed in transfected cells; host or cells: NIH 3T3 cells expressing iRFP-ZtSH2
T1 sequence (P11362 22-822, species assumed): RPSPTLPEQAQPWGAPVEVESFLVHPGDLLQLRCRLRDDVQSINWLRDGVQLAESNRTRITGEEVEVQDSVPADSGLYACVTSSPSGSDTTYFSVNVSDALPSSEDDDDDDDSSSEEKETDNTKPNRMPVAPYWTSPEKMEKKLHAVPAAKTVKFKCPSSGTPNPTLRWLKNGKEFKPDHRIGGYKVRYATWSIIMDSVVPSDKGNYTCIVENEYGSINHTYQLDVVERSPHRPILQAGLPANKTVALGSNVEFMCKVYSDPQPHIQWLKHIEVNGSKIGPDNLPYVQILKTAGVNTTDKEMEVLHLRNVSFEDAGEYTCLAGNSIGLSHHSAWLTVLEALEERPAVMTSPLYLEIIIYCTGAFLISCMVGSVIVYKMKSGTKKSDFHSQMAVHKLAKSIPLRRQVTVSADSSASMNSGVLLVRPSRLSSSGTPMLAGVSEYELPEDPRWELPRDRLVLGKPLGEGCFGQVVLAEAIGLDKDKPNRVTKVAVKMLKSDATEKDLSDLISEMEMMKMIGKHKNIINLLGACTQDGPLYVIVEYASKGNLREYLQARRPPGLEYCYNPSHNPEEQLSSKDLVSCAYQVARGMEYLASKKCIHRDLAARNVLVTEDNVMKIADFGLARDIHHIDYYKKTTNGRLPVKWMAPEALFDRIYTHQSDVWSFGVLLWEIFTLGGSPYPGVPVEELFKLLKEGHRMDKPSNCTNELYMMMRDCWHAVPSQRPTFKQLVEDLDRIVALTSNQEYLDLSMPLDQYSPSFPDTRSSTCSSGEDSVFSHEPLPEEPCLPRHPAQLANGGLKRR
Experimental: One advantage of the pYtag approach is its modularity: ITAMs can in principle be fused to the C-termini of many different RTKs and recruit ZtSH2 upon stimulation. Therefore, it was tested whether pYtags could be adapted to monitor the activity of receptors other than EGFR. pYtag biosensors were designed for two additional RTKs: 1) ErbB2, a ligandless member of the ErbB family that signals by heterodimerizing with ligand-bound EGFR; and 2) fibroblast growth factor receptor 1 (FGFR1), a non-ErbB family RTK. ErbB2 is a particularly challenging RTK to study because it can only be activated in conjunction with an additional RTK (e.g., EGFR), so Grb2-based biosensors would be unable to distinguish between the activity of EGFR and ErbB2.
Starting from NIH 3T3 cells expressing iRFP-ZtSH2, cell lines expressing either an ErbB2 pYtag (ErbB2-CD3ε-FusionRed), an FGFR1 pYtag (FGFR1-CD3ε-FusionRed), or ITAM-less variants of each were generated. For the ErbB2 case, cells with EGFR-Citrine were further transduced to express both required components of a functional receptor heterodimer (see FIG. 3, and FIGS. 4A-4B).
The pYtag approach is indeed modular, and this strategy can be readily adapted for monitoring the activation of distinct RTKs in individual cells.

B1: EPGN: epigen, low-affinity EGFR ligand (protein, UniProt Q6UW88 23-154, looked up)
Epigen: AAVTVTPPITAQQGNWTVNKTEADNIEGPIALKFSHLCLEDHNSYCINGACAFHHELEKAICRCFTGYTGERCEHLTLTSYAVDSYEKYIAIGIGVGLLLSGFLVIFYCYIRKRCLKLKSPYNVCSGERRPL
Q: For B1, which “EGFR activity dynamics after low-affinity ligand” value [1] is on record?
A: rapid rise in EGFR activity followed by a plateau within minutes

B2: FGF4: activating ligand used to stimulate FGFR1 pYtag-expressing cells (protein, UniProt P08620 31-206, looked up)
Fibroblast growth factor 4: APTAPNGTLEAELERRWESLVALSLARLPVAAQPKEAAVQSGAGDYLLGIKRLRRLYCNVGIGFHLQALPDGRIGGAHADTRDSLLELSPVERGVVSIFGVASRFFVAMSSKGKLYGSPFFTDECTFKEILLPNNYNAYESYKYPGMFIALSKNGKTKKGNRVSPTMKVTHFLPRL
Q: B2 was tested. Which “ZtSH2 response of FGFR1 pYtag-expressing cells” value [2] did it give?
A: induced cytosolic clearance of ZtSH2
